Measured values taken from US20250283063, “NOVEL CRISPR-CAS12I SYSTEMS AND USES THEREOF” (HUIDAGENE THERAPEUTICS (SINGAPORE) PTE. LTD., published 2025).

T1: xCas12i v6.1 (N243R,E336R,V880R)
T1 chain: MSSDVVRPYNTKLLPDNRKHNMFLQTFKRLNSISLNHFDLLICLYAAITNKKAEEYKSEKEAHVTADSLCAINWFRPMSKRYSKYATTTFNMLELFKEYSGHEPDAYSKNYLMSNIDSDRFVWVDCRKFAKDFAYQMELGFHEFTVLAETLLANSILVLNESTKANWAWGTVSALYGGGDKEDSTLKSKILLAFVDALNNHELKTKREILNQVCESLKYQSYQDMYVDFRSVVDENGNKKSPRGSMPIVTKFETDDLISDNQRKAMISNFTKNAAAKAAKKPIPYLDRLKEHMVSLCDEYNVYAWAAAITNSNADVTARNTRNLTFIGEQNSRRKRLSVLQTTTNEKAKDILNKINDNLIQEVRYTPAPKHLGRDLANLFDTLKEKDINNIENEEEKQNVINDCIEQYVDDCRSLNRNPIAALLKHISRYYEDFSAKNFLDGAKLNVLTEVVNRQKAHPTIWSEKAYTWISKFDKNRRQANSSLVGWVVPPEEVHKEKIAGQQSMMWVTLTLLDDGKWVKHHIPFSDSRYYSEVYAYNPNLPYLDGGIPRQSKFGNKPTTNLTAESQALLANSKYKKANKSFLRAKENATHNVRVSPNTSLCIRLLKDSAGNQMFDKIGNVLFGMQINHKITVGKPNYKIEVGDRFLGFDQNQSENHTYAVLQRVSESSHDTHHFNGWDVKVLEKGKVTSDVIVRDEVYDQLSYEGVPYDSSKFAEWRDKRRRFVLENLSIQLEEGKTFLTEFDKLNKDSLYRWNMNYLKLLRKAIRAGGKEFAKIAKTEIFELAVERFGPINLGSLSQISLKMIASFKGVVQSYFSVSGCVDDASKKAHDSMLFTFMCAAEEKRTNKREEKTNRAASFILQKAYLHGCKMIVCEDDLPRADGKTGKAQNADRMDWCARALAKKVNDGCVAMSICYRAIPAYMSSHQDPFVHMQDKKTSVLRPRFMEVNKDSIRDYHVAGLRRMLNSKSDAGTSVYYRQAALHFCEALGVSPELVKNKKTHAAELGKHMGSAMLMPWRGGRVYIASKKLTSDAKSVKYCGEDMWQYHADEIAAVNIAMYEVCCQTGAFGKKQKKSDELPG

T2: hfCas12Max (v6.3) (N243R,E336R,D892R)
T2 chain: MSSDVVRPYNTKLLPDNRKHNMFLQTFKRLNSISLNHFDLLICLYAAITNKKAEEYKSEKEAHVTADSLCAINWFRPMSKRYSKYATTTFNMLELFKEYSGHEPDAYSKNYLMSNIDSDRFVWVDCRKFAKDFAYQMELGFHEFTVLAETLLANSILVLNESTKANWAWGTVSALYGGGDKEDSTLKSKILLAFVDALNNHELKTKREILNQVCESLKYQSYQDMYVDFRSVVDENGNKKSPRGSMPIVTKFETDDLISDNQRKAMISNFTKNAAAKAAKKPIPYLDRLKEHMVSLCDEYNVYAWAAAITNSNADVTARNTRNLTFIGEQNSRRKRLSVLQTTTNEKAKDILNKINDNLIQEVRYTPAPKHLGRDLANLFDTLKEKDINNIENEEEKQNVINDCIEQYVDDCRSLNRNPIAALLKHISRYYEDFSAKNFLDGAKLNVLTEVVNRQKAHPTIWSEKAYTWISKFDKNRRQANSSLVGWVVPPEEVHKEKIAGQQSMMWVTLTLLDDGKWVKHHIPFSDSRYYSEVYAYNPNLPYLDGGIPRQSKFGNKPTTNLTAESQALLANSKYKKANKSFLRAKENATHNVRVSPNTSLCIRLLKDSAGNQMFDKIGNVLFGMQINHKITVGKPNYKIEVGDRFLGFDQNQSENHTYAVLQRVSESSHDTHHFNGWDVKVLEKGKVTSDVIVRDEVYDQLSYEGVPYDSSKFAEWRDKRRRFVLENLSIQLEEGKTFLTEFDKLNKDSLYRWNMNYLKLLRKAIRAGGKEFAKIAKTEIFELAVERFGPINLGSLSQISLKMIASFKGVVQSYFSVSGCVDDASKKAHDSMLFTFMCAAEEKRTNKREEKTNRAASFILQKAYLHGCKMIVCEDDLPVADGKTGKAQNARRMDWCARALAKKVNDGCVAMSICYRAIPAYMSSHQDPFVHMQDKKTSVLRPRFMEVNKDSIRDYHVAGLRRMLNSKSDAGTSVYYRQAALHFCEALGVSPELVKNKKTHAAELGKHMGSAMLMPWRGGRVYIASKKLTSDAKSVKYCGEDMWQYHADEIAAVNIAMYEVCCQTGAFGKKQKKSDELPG


Legend:
Conditions in all cases: tags: NLS
[1] = molecular target: T1, xCas12i v6.1; experiment: cell_activity; PAM TTTG; on-target
[2] = molecular target: T2, hfCas12Max (v6.3); experiment: cell_activity; PAM TTTG; on-target
[3] = molecular target: T2, hfCas12Max (v6.3); experiment: cell_activity; PAM TTTG; OT-1
Description: HEK293T cells were cultured in 24-well tissue culture plates according to standard methods for 12 hours, before the reporter and expression plasmids were co-transfected into the cells using standard polyethyleneimine (PEI) transfection. The transfected cells were then cultured at 37° C. under 5% CO₂ for 48 hours. Then the cultured cells were analyzed by flow cytometry for BFP, EGFP, and mCherry fluorescent signals. A “blank” control group was also set up, where only the reporter plasmid was transfected, and no expression plasmid was introduced.
A dual plasmid fluorescent reporter system for evaluation of off-target dsDNA cleavage activity (off-target reporter system; referring to “Off-Target Reporter” in FIG. 1B) was established, which was similar to the dual plasmid fluorescent reporter system in Example 6 for evaluation of (on-target) dsDNA cleavage activity, except that the insertion sequence of the EGxxxxFP coding sequence contains an TTR off-target protospacer sequence (one of SEQ ID NOs: 127-129) containing one or more mismatches (bold, underlined) with a TTR-targeting spacer sequence (SEQ ID NO: 130) in the gRNA, rather than containing a TTR on-target protospacer sequence (SEQ ID NO: 130; which is the same as SEQ ID NO: 107 in Example 5); DR-T1 sequence (SEQ ID NO: 451) was used. To save drafting, the on-target protospacer sequence/spacer sequence in Table 7 refer to both the protospacer sequence (a DNA sequence) and the corresponding spacer sequence (an RNA sequence) with any “T” in the sequence when referring to a protospacer sequences standing for “T” and when referring to a such spacer sequence standing for “U”, although the assigned SEQ ID NO: 130 in the sequence listing is annotated as DNA.

Binder	activity [1]	activity [2]	activity [3]
TTR.2 crRNA ; TTR ON.1 (ssRNA ; dsDNA) RNA: AUGACUCAGAAAUGUGUCCCCAGUUGACACUAGAAGGGAUAUACAAAGUGGA DNA 1: TTTGTAGAAGGGATATACAAAGTGGA DNA 2: TCCACTTTGTATATCCCTTCTACAAA	75.7%	77.7%	–
TTR.2 crRNA ; TTR OT.1 (ssRNA ; dsDNA) RNA: AUGACUCAGAAAUGUGUCCCCAGUUGACACUAGAAGGGAUAUACAAAGUGGA DNA 1: TTTGTAGAAGGGATATAGAAAGTATC DNA 2: GATACTTTCTATATCCCTTCTACAAA	–	–	1.55%
